# Earlier results, collected in article PMC5266483.
# Biological target: Lys14 (position 14, …)
# Experiment: NMR
# Conditions: 37 °C; Transmembrane helix in DOPC
protein,measurement,value
GGALWLALALALAKALALWLAGA [GWALP23-K14 (synthetic construct; L14K)],pKa,6.5
